{"source": "patent US20080213817A1", "about": "“Enhancement of Th2-Dependent and Inflammatory Response” (priority 2004, published 2008)", "molecules": {"B1": {"name": "IL-4: recombinant IL-4 (R&D Systems), added exogenously (protein, UniProt P05112 25-153, looked up)", "Interleukin-4": "HKCDITLQEIIKTLNSLTEQKTLCTELTVTDIFAASKNTTEKETFCRAATVLRQFYSHHEKDTRCLGATAQQFHRHKQLIRFLKRLDRNLWGLAGLNSCPVKEANQSTLENFLERLKTIMREKYSKCSS"}}, "test_system": "WT thymocytes", "test": "Thymocyte proliferation, [3H] thymidine incorporation", "type": "cell-based, mice", "conditions": "anti-CD3 or anti-CD3+anti-CD28, 72 hrs, increasing amounts of IL-4", "description": "For proliferation assays, purified thymocytes or CD4^+ or CD8^+ splenic T cells (2×10^5 cells/well) were cultured in round bottom 96-well plates (Costar) precoated with anti-CD3 antibody (BD Pharmingen) in the absence or presence of soluble anti-CD28 antibody (BD Pharmingen). After 3 days, cultures were pulsed for 6 hrs with 1 μCi [^3H] thymidine (New England Nuclear) per well and cells were harvested. [^3H] thymidine incorporation was measured by scintillation counting. When indicated, either recombinant IL-4 or neutralizing anti-IL-4 antibody (R&D Systems) were added prior to [^3H] thymidine labeling.\nFor proliferation assays, purified thymocytes (2×10^5 cells/well) were cultured in round bottom 96-well plates (Costar) precoated with anti-CD3 antibody (BD Pharmingen) in the absence or presence of soluble anti-CD28 antibody (BD Pharmingen). […] [^3H] thymidine incorporation was measured by scintillation counting. […]\nThe effect of the Mekk1^KD mutation on activation of JNK and other MAPKs in response to TCR and CD28 engagement was investigated. • A. WT and Mekk1^KD thymocytes were incubated with anti-CD3 (10 μg/ml) and anti-CD28 (1 μg/ml). At the indicated times, JNK activity was measured by an immunecomplex kinase assay using GST-c-Jun(1-79) as the substrate. Phosphorylated c-Jun was detected by autoradiography and quantitated using a PhosphorImager. […] Cell proliferation was measured as above. […]"}
{"molecule": "B1", "values": [{"measurement": "proliferative response of WT thymocytes on addition of exogenous IL-4", "result": "strongly potentiated"}]}
